The values below come from the nanobody polyreactivity screen of Harvey et al. (2022).

A short description of the data set: yeast display, Sf9 membrane polyspecificity reagent, FACS + sequencing; frameworks hold sequencing errors. Put shortly:
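After 36–48 hours of galactose induction, yeast (Saccharomyces cerevisiae BJ5465) displaying a synthetic nanobody library were stained at 4 °C for 1 hour with 10% biotinylated, detergent-solubilized Sf9 membrane reagent. Streptavidin microbeads enriched the stained cells before FACS sorting into low and high (top ~1%) gates on anti-HA and streptavidin fluorescence. Each clone's polyreactivity label reflects its gate of origin.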
Regarding “QVQLVESGGGLVQAGGSLRLSCAASGRTFGWYAMGSYRQAPGKERELVAAITSGTSTYYADSVKGRFTISRDNAKYTVYLQMNSRKPEDTAVYYCAVDRGISVGYTRFDYWGQGTQVTVSS”, the “polyreactivity (PSR sort gate)” value is reported as “low polyreactivity”.
Regarding “QVQLVESGGGLVQAGGSLRLSCAASGRTFGWYAMGWYRQAPGKEREFVAVISRSGTNTYYADSVKGRFTISRDNAKNTVYLQMNSLKPEDTAVYYCATYWSLSQSRQGDYWGQGTQVTVSS”, the “polyreactivity (PSR sort gate)” value is given as “high polyreactivity”.
Regarding “QVQLVESGGGLVQAGGSLRLSCAASGRTFGWYAMGWYRQAPGKERELVAAISTRGTRTYYADSVKGRFTISRDNAKNTVYLQMNSLKPEDTAVYYCNAKRRAVTTAHGIPEEDYWGQGTQVTVSS”, the “polyreactivity (PSR sort gate)” value was “high polyreactivity”.
“QVQLVESGGGLVQAGGSLRLSCAASGRTFGWYTMGWYRPAPGKERELVAAISRSGTSTYYADSVKGRFTISRDNAKNTVYLQMNSLKQEDTAVYYCAQYVNPRGGNYWGQGTQVTVSS”: the “polyreactivity (PSR sort gate)” value was “high polyreactivity”.
Turning to “QVQLVESGGGLVQAGGSLRLSCAASGRTFGYNAMGWYRKAPGKEREFVAAISWSGGRTYYADSVKGRFTISRDNAKNTVYLQMNSLKPEDTAVYYCAAGFGDGPGNGYYTRYSWDDDYWGQGTQVTVSS”, the “polyreactivity (PSR sort gate)” value is “low polyreactivity”.
Regarding “QVQLVESGGGLVQAGGSLRLSCAASGRTFGYNAMGWYRQAPGKERELVAAITIGGSTNYADSVNGRFTISRDNAKNTVYLQMNSLKPEDTAVYYCAAYDTLLYWVEFYYWGQGTQVTVSS”, the “polyreactivity (PSR sort gate)” value is reported as “low polyreactivity”.
In the case of “QVQLVESGGGLVQAGGSLRLSCAASGRTFGYNAMGWYRQAPGKERELVASISYRGGSTYYADSVKGRFTISRDNAKNTVYLQMNSLKPEDTAVYYCNKYYVWREYYWGQGTQVTVSS”, the “polyreactivity (PSR sort gate)” value is “high polyreactivity”.
For the sequence “QVQLVESGGGLVQAGGSLRLSCAASGRTFGYNAMGWYRQAPGKERELVATITWNGGRTYYADSVKGRFTISRDNAKNTVYLQMNSLKPEDTAVYYCAKGYPIIGRHGHWGQGTQVTVSS”, the “polyreactivity (PSR sort gate)” value is “high polyreactivity”.
On to “QVQLVESGGGLVQAGGSLRLSCAASGRTFGYNAMGWYRQAPGKERQLVAAINWSGASTYYADSVKGRFTISRDNAKNTVYLQMNSLKPEDTAVYYCAADYSYIYGFDYWGQGTQVTVSS”, for which the “polyreactivity (PSR sort gate)” value was “low polyreactivity”.
Take “QVQLVESGGGLVQAGGSLRLSCAASGRTFGYNAMGWYRQAPGKESELVAVISRGSRTYYADSVKGRFTISRDNAKNTVYLQMNSLKPEDTAVYYCAADYEYSGYGYWGQGTQVTVSS”: the “polyreactivity (PSR sort gate)” value is given as “high polyreactivity”.
Regarding “QVQLVESGGGLVQAGGSLRLSCAASGRTFGYNTMGWYRQAPGKERELVAVITQGVDITYYADSVKGRFTISRDNAKNTVYLQMNSLKPEDTAVYYCNTAGQDAEYDYWGQGTQVTVSS”, the “polyreactivity (PSR sort gate)” value was “low polyreactivity”.
In the case of “QVQLVESGGGLVQAGGSLRLSCAASGRTFGYYAMGWYRPAPGKEGELVAVITWSGDSTYYADSVKGRFTISRDNAKNTVYLQMNSLKPEDTAVYYCNADSGNAGTAYDDYDYWGQGTQVTVSS”, the “polyreactivity (PSR sort gate)” value is “low polyreactivity”.
In the case of “QVQLVESGGGLVQAGGSLRLSCAASGRTFGYYAMGWYRPAPGKERELVAAISSNTDSTYYADSVKGRFTISRDNAKNTVYLQMNSLKPEDTAVYYCAAEAYSYYPGTYEDDYWGQGTQVTVSS”, the “polyreactivity (PSR sort gate)” value was “low polyreactivity”.
The entry for “QVQLVESGGGLVQAGGSLRLSCAASGRTFGYYAMGWYRQAPGKERELFDAITGRTSRTYYADSVKGRFTISRDNAKNTVYLQMNSLKPEDTAVYYCAARYTRWRYNYKDYDYWGQGTQVTVSS” is “high polyreactivity”; for “QVQLVESGGGLVQAGGSLRLSCAASGRTFGYYAMGWYRQAPGKERELVAAIRSTGSTNYADSVKGRFTISRDNAKNTVYLQMNSLKPDDTAVYYCNADPWWRFDYWGQGTQVTVSS” it is “low polyreactivity”; for “QVQLVESGGGLVQAGGSLRLSCAASGRTFGYYAMGWYRQAPGKERELVAAISGNGDNTYYADSVKGRFTISRDNAKNTVYLQMNCLIPEDTAVYYCSLWYRYKYAPYRLHGYWGQGTQVTVSS” it is “high polyreactivity”.
